These results are taken from the supplement of paper PMC12042874.

± gives the uncertainty stated by the source.

The series can be described thus: amyloid nucleation score (Sup35N fusion, yeast selection) (log enrichment); library NNK1; higher = more nucleation; inactive = no reads after selection. In outline: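 For the nucleation score, DiMSum gave the log enrichment of output over input reads, centred on the mode score of non-aggregating sequences. Psi-negative yeast expressing Sup35N fused to peptides of 20 random codons were induced with 100 μM copper sulfate for 24 hours and grown 7 days at 30°C on medium lacking adenine and uracil. Input and output plasmid inserts were Illumina-sequenced, and sequences with under 100 input reads were excluded.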
On to IRKHLDPGPSYRSSYLRGW, for which the amyloid nucleation score entry was “inactive”.

For the substance IRLNSFTIESKRMYGRDSDV, the amyloid nucleation score was 3.38 ± 0.12.

Take IRLRMWDHRWSTKGGSHTFL: the amyloid nucleation score is -1.36 ± 0.95.

IRNSEKLNRGCGCGVMHVSV: the amyloid nucleation score worked out at 0.239 ± 0.49.

On to IRQTVVLGL, for which the amyloid nucleation score is -0.732 ± 0.7.

With IRVFLLSCQTEKLGSVGVRS, the amyloid nucleation score is -0.007 ± 0.41.

IRVTAEICYLLKHTVMGRMR yielded an amyloid nucleation score of 0.523 ± 0.34.

As for ISALRFSTLRSCGAGPGVAS, the amyloid nucleation score was -0.859 ± 1.2.

For the substance ISCYVRISIILFLEKMVLRA, the amyloid nucleation score was 0.033 ± 0.24.

In turn, ISDCRFILMYSYGHLCAGVR showed an amyloid nucleation score of 0.513 ± 0.45.

With ISEMVEWSISPTLGETVTCM, the amyloid nucleation score is 0.363 ± 0.49.

The substance ISICDVYLWVHMRYSL had an amyloid nucleation score of 0.584 ± 0.21.

Take ISLTDRVSGNRAVYHCSYAS: the amyloid nucleation score is -1.01 ± 1.4.

Consider ISNGFQSV, for which the amyloid nucleation score was -0.027 ± 0.81.

For the substance ISRWMSVDLCLPKLATGTVS, the amyloid nucleation score is -0.083 ± 0.4.

Substance ISSTGKIFGFFPLCSYMN came in with an amyloid nucleation score of 0.041 ± 0.47.

On to ISWFRCLEVWPSYGIPDWKN, for which the amyloid nucleation score is -0.467 ± 0.28.

With ISWMLLVLSFSMTVLNIRWN, the amyloid nucleation score is -0.199 ± 0.33.

Consider ISYESWVLRGIARGFQGLVG, for which the amyloid nucleation score is -1.09 ± 0.7.

ISYSYVTIIA: the amyloid nucleation score was -0.181 ± 0.27.

As for ITAFKRAKRSAGCW, the amyloid nucleation score was -0.034 ± 0.25.

Substance ITFKLNMCPILWIPCVACSN yielded an amyloid nucleation score of 6.57 ± 0.047.

Turning to ITGGVVWEHS, the amyloid nucleation score was 0.358 ± 1.

ITKGAPSLYYMCRRGEDACS came in with an amyloid nucleation score of 0.523 ± 0.44.

Substance ITMFNLYQCSL gave an amyloid nucleation score of 5.78 ± 0.065.

Consider ITMGTGCSAGEWFMVYMMC, for which the amyloid nucleation score is 2.15 ± 0.2.

ITVDAMIKSVYFITDSYRHF displayed an amyloid nucleation score of 0.911 ± 0.26.

As to ITVRATR, the amyloid nucleation score was -0.97 ± 1.7.

ITYSTYLMSCGRSMYQGWKV: the amyloid nucleation score was 0.372 ± 0.23.

IVDYVGCLRHYECYGWQPWG showed an amyloid nucleation score of 0.225 ± 0.51.

As for IVETLCRYCVPRVMVTFVGQ, the amyloid nucleation score entry is “inactive”.

Turning to IVLRFIRILISINLSQEH, the amyloid nucleation score is -1.14 ± 0.76.

Turning to IVLTHYGSVLFHSYKGYFMW, the amyloid nucleation score is -0.197 ± 0.29.

With IVTALEGYRDYFSEPCIFFM, the amyloid nucleation score is -0.176 ± 0.32.

Take IVVGCGCPPRINCFV: the amyloid nucleation score is -0.444 ± 0.7.

As for IVWSYSRTIYLNFI, the amyloid nucleation score was found to be 0.873 ± 0.68.

As to IVYIWFLSLNFSMMVSFRFP, the amyloid nucleation score worked out at 0.805 ± 0.29.

Turning to IWDHCFGPVKCCNIWGKEVG, the amyloid nucleation score was 5.1 ± 0.079.

In the case of IWIDKRWLMMPKLVRKVPNV, the amyloid nucleation score result was “inactive”.

IWLCVYNGM gave an amyloid nucleation score of 4.98 ± 0.12.

In turn, IWLSQYDHGNCVTYSQANYM had an amyloid nucleation score of 0.412 ± 0.85.

IWMFISAVASFNITRSWCYL registered an amyloid nucleation score of 2.02 ± 0.13.

For IWMGCYVNVARSK, the amyloid nucleation score came to 1.03 ± 0.22.

For the substance IWNIVWNNLVYVNFSNLGGV, the amyloid nucleation score stood at 3.73 ± 0.08.

Substance IWWVDGVKTGSF yielded an amyloid nucleation score of 1.21 ± 0.76.

Turning to IWYSVWNSNGFSHSRHGQQR, the amyloid nucleation score result was “inactive”.

Turning to IYDTGVAFDCSLM, the amyloid nucleation score result was “inactive”.

As to IYEKRGD, the amyloid nucleation score came out at 1.15 ± 0.98.

With IYFTSTMKLRQDILADNEHC, the amyloid nucleation score was found to be 1.08 ± 0.54.

With IYKVLYYEVNKFWTTIVSSR, the amyloid nucleation score was -0.651 ± 0.29.

IYLSNAYSTTYSLKFSFM had an amyloid nucleation score of 6.14 ± 0.071.

As for IYNQESVEYQGTMYLHFRYW, the amyloid nucleation score result was “inactive”.

Take IYPKLDCYVAVVLLDLSGVT: the amyloid nucleation score entry is “inactive”.

In the case of IYQLDVLGFDFN, the amyloid nucleation score entry was “inactive”.

As for IYSNKRTNMLMCMYNSVRGH, the amyloid nucleation score stood at 0.243 ± 0.35.

Substance IYSRVGWETSWDWSVSVWGF returned an amyloid nucleation score of 0.031 ± 0.37.

On to KACWTFNFCKSMVVKEHDPI, for which the amyloid nucleation score was 2.56 ± 0.19.

Turning to KAGVSVLYLHMFLF, the amyloid nucleation score is -0.303 ± 0.79.

On to KAPAMHWLDRFVGYVPRV, for which the amyloid nucleation score is -0.011 ± 0.27.

KAQGPSFYEYRWITLNYLGY came in with an amyloid nucleation score of 1.07 ± 0.15.

Substance KASGIMLSSGVLEILVWVQW showed an amyloid nucleation score of 0.01 ± 0.84.

KASMMPSDSSCLI showed an amyloid nucleation score of 0.911 ± 0.34.

KAVFDNLLTCPILVIGSTPA: the amyloid nucleation score was -0.956 ± 0.93.

With KCGGKRCWLSFCLDAD, the amyloid nucleation score stood at 1.48 ± 0.33.

As to KCHRPWYSCLIC, the amyloid nucleation score was 1.98 ± 0.61.

Turning to KCIDMVFKY, the amyloid nucleation score stood at 0.143 ± 0.39.

Consider KCLTMDFLR, for which the amyloid nucleation score is -1.12 ± 1.1.

On to KCREIALHYPAYIPFVLIAY, for which the amyloid nucleation score is -0.031 ± 0.82.

KCSFNLTLIVF registered an amyloid nucleation score of 1.77 ± 0.15.

On to KCTELTTCRSPVMKGEAVWL, for which the amyloid nucleation score was -0.052 ± 0.77.

For the substance KCYLLRKVGCWHQHLDGHFG, the amyloid nucleation score was -0.429 ± 0.66.

Regarding KDICSYGLNYSLDNVVYNLV, the amyloid nucleation score is 0.809 ± 0.39.

The substance KDISITCLLYPKNHSGYSGT came in with an amyloid nucleation score of 0.058 ± 0.25.

Turning to KDLLYKSIRW, the amyloid nucleation score is 1.03 ± 0.27.

On to KDNLYWKDLSVCLRRFVGLH, for which the amyloid nucleation score entry is “inactive”.

The substance KDVMYTYFIAISDLGIRNPL had an amyloid nucleation score of 1.3 ± 0.56.

Consider KEIIEMWSTFTYNQIWCDWI, for which the amyloid nucleation score is -0.322 ± 0.42.

KELIKCYLNM: the amyloid nucleation score is 0.463 ± 0.5.

As to KFCLDLSYLFSSRTVMYEIV, the amyloid nucleation score was -0.24 ± 0.26.

On to KFKKFGSSDGLDCDRYILVG, for which the amyloid nucleation score is -0.799 ± 1.2.

Consider KFNIVILLINCAPAFSEMYL, for which the amyloid nucleation score was determined as 5.475 ± 0.05.

In turn, KFTFDS displayed an amyloid nucleation score of 1.52 ± 0.35.

KFVHNYSLKYIKGVVSCQFL returned an amyloid nucleation score of 0.727 ± 0.37.

Take KFVYEGSGHQVILYVTLMGY: the amyloid nucleation score is -1.59 ± 0.84.

On to KGCAIGRRAINSCYQSGWIW, for which the amyloid nucleation score was determined as 1.6 ± 0.57.

Substance KGCCLCLISMSVTNRLVEPR had an amyloid nucleation score of 6.294 ± 0.059.

KGNYFRVTVYSAGFIQLLMS registered an amyloid nucleation score of 6.393 ± 0.049.

KGTAPGNSGGERVVMNSHDL: the amyloid nucleation score amounted to 2.61 ± 0.22.

KHDRHAKTTSLYRKPGKLRR gave an amyloid nucleation score of 0.4 ± 1.1.

KHRFCSIEWVK displayed an amyloid nucleation score of 1.31 ± 0.71.

In turn, KHWSCRYWEEFGGMDHNLDW gave an amyloid nucleation score of 1.1 ± 0.38.

Regarding KIEFIGDVRFA, the amyloid nucleation score is 0.92 ± 0.67.

On to KIICFRLKSPLVWKMYDKTG, for which the amyloid nucleation score is -0.699 ± 0.32.

KIRVYSRCCFLSG registered an amyloid nucleation score of 5.63 ± 0.071.

KKAIPACHVVSFTMRLSFLD showed an amyloid nucleation score of 0.225 ± 0.63.

Regarding KKSGRYESVSQGWYDRLLQF, the amyloid nucleation score was -0.667 ± 0.31.

Consider KKWHNVIGARDLSRIYSIA, for which the amyloid nucleation score entry is “inactive”.

In the case of KLCCSLVNSIMNLFAMSAAV, the amyloid nucleation score entry is “inactive”.

The substance KLESCN came in with an amyloid nucleation score of 0.39 ± 1.2.

As to KLILK, the amyloid nucleation score was -0.378 ± 0.51.

Consider KLIVVSLIRDMQSNV, for which the amyloid nucleation score was -0.059 ± 0.27.

As to KLMVHRNDRNPMY, the amyloid nucleation score was -0.318 ± 0.63.

Take KLSNFKVHYCYLTSHLMLET: the amyloid nucleation score is 0.053 ± 0.43.

For KLSYFSQEKRDNWPISRLPS, the amyloid nucleation score was 0.072 ± 0.3.

For the substance KLYWTYLTPGTNSGLQSPDS, the amyloid nucleation score was -0.288 ± 0.62.

Substance KMIDICPFIHWSQSSTPSRA came in with an amyloid nucleation score of 0.018 ± 0.67.

In turn, KMLSSQLITRPFGGPKRHKP yielded an amyloid nucleation score of 0.753 ± 0.65.

Consider KMRVHGLAVHRATQ, for which the amyloid nucleation score was -0.737 ± 0.71.

The substance KMSVRNVTDFGVRLVRYFNG registered an amyloid nucleation score of 1.42 ± 0.22.

KNAPLPRIVTIGKVLRYNRG: the amyloid nucleation score was 0.422 ± 0.79.

With KNRQLTRLFYTWELRTGTVG, the amyloid nucleation score was -0.227 ± 0.61.

On to KNVYDYFWLDNCYAIDIASM, for which the amyloid nucleation score was 0.427 ± 0.41.

Turning to KPLILVQNTKLPSRFCYPLT, the amyloid nucleation score was -0.488 ± 0.74.

Turning to KPRVRAAGLCSLQFWALIAV, the amyloid nucleation score is -0.275 ± 0.72.

For KQRSN, the amyloid nucleation score is 0.746 ± 0.7.

Regarding KRALQDRMLLEP, the amyloid nucleation score was -0.286 ± 1.

Consider KRARGDFYILEWQSDLDNLG, for which the amyloid nucleation score is -0.755 ± 0.67.

In the case of KRDFVSRLDESPN, the amyloid nucleation score is -0.873 ± 1.1.

In the case of KRLLFKYRSVNRHTYLFIPV, the amyloid nucleation score is -0.616 ± 0.28.

As for KRRWPSSNGDFFAECYQLGT, the amyloid nucleation score is 0.461 ± 0.25.

With KRRYYCFGAMVY, the amyloid nucleation score turned out to be 0.203 ± 0.38.

Take KRTAHRMVRSCSLWKVRYRQ: the amyloid nucleation score is 0.462 ± 1.2.

Take KRVSRNPNPGVV: the amyloid nucleation score is -0.076 ± 0.56.

Regarding KRWTKNFDCFQTVMHIYCSQ, the amyloid nucleation score result was “inactive”.

KRYSGDIDMTSREMGLFK had an amyloid nucleation score of 0.356 ± 0.16.

KSAASILCTMNVSYRSNFLE had an amyloid nucleation score of 1.08 ± 0.37.

Regarding KSCAHSYEFHHCNCAVVFTL, the amyloid nucleation score turned out to be 6.6 ± 0.051.

As to KSERERRVLMQRSDECVKSF, the amyloid nucleation score is -0.297 ± 0.5.

With KSFNVLCHIAVVPNRWVGRT, the amyloid nucleation score was 2.49 ± 0.13.

In the case of KSHIIFSIWQRLFGGHRISK, the amyloid nucleation score turned out to be 0.413 ± 0.58.

The substance KSIRVNTMHRC returned an amyloid nucleation score of 2.19 ± 0.3.

In the case of KSITWSKGDFARSTLLVNIC, the amyloid nucleation score is 0.397 ± 0.43.

KSLQRWRDRCRDHVLSAS: the amyloid nucleation score was -0.083 ± 1.

Regarding KSMKGRSLRLRLKRDPRKVA, the amyloid nucleation score was -0.051 ± 0.4.

KSSNLVYVHTAHQRGYYCNQ had an amyloid nucleation score of 0.3 ± 0.41.

Turning to KTANGNCHENSQSDVFKSVS, the amyloid nucleation score was 0.346 ± 0.31.

For KTCFHNNLPKIGLPHHLHNG, the amyloid nucleation score was -1.32 ± 1.9.
